Data: US20100291638

How the values were obtained:
[1] = test system: T1, DNA polymerase clone 1160 (uncultured hot spring virus (Great Boiling Spring)); conditions: dNTP incorporation; background <500
T1 sequence: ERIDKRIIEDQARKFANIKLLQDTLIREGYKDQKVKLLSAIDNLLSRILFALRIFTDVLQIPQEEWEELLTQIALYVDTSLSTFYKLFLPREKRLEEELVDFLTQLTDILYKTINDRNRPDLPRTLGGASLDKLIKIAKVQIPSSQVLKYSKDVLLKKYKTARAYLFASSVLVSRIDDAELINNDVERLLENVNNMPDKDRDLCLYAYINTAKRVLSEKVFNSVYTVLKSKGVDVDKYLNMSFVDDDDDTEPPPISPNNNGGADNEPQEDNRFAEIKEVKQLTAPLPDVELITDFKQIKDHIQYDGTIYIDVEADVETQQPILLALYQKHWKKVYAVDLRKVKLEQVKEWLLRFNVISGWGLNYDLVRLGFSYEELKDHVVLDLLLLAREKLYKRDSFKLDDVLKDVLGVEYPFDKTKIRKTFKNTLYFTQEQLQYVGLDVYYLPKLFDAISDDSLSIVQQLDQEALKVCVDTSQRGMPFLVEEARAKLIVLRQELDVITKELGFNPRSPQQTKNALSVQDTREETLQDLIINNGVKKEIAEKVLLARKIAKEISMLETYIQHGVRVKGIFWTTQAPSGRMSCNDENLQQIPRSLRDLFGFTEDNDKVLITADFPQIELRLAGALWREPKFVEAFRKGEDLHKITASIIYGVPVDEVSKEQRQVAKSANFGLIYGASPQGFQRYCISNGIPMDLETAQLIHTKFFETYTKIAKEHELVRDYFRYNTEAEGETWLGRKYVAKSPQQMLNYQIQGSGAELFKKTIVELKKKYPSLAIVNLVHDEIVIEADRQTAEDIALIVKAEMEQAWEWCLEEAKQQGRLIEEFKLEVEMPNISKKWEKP

[2] = test system: T2, DNA polymerase 3173 (uncultured hot spring virus (Octopus Spring)); conditions: dNTP incorporation, 60 C, 2 mM MgSO4; background <100 cpm
T2 sequence: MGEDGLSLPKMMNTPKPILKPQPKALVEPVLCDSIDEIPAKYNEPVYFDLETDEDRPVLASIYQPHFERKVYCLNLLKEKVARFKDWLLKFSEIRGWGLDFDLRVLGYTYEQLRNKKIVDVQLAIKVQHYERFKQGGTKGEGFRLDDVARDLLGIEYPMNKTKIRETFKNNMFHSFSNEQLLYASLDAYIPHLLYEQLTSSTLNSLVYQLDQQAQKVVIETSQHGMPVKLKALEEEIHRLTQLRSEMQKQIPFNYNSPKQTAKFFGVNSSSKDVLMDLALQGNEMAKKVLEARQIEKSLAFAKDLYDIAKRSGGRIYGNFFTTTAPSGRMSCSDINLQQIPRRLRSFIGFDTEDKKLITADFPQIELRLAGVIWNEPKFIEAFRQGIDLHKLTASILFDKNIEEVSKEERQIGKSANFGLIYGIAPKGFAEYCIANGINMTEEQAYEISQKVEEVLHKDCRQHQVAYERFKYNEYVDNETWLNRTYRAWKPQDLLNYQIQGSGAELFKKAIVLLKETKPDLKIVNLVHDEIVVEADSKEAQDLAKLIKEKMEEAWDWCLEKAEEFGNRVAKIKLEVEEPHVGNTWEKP

Work on activated calf thymus DNA yielded an activity [1] of 139000 cpm and an activity [2] greater than 1000 cpm.
